The numbers were not newly measured in article PMC9214263, which cites them from elsewhere.

The data set concerns the target TNFα (Homo sapiens) (UniProt P01375). The data set can be described thus: KinExA.

TNFα (Homo sapiens), sequence (P01375 77-233): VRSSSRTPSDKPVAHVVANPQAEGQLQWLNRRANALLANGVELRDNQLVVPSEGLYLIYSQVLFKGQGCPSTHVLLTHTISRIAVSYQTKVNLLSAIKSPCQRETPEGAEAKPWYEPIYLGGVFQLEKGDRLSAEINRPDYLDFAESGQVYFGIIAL

infliximab: the dissociation constant Kd – broadly, the free concentration of one partner at which half of the binding sites on the other are occupied at equilibrium, for simple one-to-one binding – is 4.2 pM.
